Test results as given in PMC2743687 (Nature structural & molecular biology, 2009).

Biological target: full-length Brr2, purified, Protein A tag cleaved off (S. cerevisiae, UniProt P32639 1-2163)
Test: native gel or EMSA

Sequence of full-length Brr2, purified, Protein A tag cleaved off (P32639 whole entry): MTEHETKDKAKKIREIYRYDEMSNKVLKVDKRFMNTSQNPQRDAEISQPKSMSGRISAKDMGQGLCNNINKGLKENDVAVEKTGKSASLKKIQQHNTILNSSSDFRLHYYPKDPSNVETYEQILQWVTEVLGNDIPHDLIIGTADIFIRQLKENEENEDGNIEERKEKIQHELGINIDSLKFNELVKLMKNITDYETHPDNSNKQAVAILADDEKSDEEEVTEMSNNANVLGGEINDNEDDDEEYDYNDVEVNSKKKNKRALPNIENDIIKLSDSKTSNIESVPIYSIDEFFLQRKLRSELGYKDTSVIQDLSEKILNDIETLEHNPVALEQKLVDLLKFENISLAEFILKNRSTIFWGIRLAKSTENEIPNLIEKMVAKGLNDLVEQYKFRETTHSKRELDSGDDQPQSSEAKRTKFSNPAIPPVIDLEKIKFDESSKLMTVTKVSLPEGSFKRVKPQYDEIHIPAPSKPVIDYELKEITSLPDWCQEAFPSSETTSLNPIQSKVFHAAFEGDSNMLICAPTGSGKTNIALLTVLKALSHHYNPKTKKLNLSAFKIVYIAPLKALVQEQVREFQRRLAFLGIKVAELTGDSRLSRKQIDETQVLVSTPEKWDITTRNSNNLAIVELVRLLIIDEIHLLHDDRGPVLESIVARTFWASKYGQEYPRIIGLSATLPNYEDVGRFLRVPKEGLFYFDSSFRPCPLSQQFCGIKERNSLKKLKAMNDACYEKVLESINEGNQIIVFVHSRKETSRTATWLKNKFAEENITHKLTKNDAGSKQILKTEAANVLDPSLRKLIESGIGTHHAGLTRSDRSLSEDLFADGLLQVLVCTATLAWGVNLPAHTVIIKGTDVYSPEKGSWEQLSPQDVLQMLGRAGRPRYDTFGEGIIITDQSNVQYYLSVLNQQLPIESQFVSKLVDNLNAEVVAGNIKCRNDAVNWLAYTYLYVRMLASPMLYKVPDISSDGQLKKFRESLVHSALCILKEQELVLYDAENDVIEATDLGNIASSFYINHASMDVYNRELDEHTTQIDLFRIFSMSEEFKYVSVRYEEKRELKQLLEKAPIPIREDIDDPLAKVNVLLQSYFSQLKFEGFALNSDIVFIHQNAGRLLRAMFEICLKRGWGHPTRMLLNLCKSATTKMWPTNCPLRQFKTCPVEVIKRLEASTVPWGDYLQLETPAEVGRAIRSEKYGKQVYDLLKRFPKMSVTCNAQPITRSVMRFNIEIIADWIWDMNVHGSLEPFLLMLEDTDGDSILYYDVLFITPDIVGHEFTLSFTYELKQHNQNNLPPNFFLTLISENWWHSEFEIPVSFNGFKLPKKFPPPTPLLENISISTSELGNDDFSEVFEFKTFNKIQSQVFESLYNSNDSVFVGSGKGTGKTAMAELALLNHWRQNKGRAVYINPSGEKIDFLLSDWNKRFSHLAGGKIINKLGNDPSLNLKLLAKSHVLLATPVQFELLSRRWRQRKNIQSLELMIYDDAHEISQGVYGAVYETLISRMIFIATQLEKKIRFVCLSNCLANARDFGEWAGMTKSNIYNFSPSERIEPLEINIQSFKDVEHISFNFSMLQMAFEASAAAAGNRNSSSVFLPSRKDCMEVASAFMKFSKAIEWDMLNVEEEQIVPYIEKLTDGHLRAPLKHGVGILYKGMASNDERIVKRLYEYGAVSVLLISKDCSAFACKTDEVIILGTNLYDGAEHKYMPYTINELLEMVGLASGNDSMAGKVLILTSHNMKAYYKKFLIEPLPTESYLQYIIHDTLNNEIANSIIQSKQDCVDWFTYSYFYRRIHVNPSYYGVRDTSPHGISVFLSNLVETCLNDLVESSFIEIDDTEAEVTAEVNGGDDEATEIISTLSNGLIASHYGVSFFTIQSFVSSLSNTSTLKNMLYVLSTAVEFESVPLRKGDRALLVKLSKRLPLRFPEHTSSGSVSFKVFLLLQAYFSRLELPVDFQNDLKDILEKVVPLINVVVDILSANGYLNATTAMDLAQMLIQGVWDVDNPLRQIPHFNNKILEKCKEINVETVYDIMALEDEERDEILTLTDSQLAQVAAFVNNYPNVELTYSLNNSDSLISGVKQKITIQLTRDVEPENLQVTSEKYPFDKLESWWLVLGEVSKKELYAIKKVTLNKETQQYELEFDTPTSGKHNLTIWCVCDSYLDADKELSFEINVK

binding result: binds
B1: C-terminal region of Prp8 (Prp8-CTR, residues 1822–2395) (domain or fragment)
chain: GLQIYQSSVQEPFLNSSNYAELFNNDIKLFVDDTNVYRVTVHKTFEGNVATKAINGCIFTLNPKTGHLFLKIIHTSVWAGQKRLSQLAKWKTAEEVSALVRSLPKEEQPKQIIVTRKAMLDPLEVHMLDFPNIAIRPTELRLPFSAAMSIDKLSDVVMKATEPQMVLFNIYDDWLDRISSYTAFSRLTLLLRALKTNEESAKMILLSDPTITIKSYHLWPSFTDEQWITIESQMRDLILTEYGRKYNVNISALTQTEIKDIILGQNIKAPSVKRQKMAELEAARSEKQNDEEAAGASTVMKTKTINAQGEEIVVVASADYESQTFSSKNEWRKSAIANTLLYLRLKNIYVSADDFVEEQNVYVLPKNLLKKFIEISDVKIQVAAFIYGMSAKDHPKVKEIKTVVLVPQLGHVGSVQISNIPDIGDLPDTEGLELLGWIHTQTEELKFMAASEVATHSKLFADKKRDCIDISIFSTPGSVSLSAYNLTDEGYQWGEENKDIMNVLSEGFEPTFSTHAQLLLSDRITGNFIIPSGNVWNYTFMGTAFNQEGDYNFKYGIPLEFYNEMHRPVHFLQF
